Experimental data from PMC3343699.
Like-named read-outs stand apart in the source and are kept apart here.

Columns and labels:
[1] = target: Lys429Cys/Thr463Cys double mutant of the bovine Aα406–483 fragment, first fraction (Fr-1) (bovine); experiment: SEC
[2] = target: Lys429Cys/Thr463Cys double mutant of the bovine Aα406–483 fragment, first fraction (Fr-1) (bovine); experiment: SEC; remark: listed apart in the source
[3] = target: Lys429Cys/Thr463Cys double mutant of the bovine Aα406–483 fragment, first fraction (Fr-1) (bovine); experiment: SEC; remark: listed apart in the source
[4] = target: Recombinant Aα392–503 fragment corresponding to the N-terminal subdomain of the human fibrinogen αC-domain (human); experiment: optical trap-based force spectroscopy
[5] = target: Recombinant Aα221–391 fragment corresponding to the human fibrinogen αC-connector (human); experiment: optical trap-based force spectroscopy

Lys429Cys/Thr463Cys double mutant of the bovine Aα406–483 fragment, first fraction (Fr-1) (domain or fragment)
oligomers (%) [1]: 12.4%
oligomers (%) [2]: 5.9%
oligomers (%) [3]: 31.7%

Recombinant Aα392–503 fragment corresponding to the N-terminal subdomain of the human fibrinogen αC-domain (domain or fragment)
cumulative binding probability [4]: 67%
rupture force peak 1 [4]: 16 pN
rupture force peak 2 [4]: 32 pN
rupture force peak 3 [4]: 48 pN

Recombinant Aα392–610 fragment corresponding to the human fibrinogen αC-domain (domain or fragment)
cumulative binding probability [5]: 51%
rupture force peak [5]: 22 pN

Recombinant Aα504–610 fragment corresponding to the C-terminal subdomain of the human fibrinogen αC-domain (domain or fragment)
cumulative binding probability [5]: 46%
rupture force peak [5]: 26 pN
